According to publication PMC9067401 (Genes & Development, 2022):

B1: Hat2, full-length, yeast (natural protein)
chain: MENQEKPLSVDEEYDLWKSNVPLMYDFVSETRLTWPSLTVQWLPTPVQELDGGFIKQELIIGTHTSGEEENYLKFAEINLPKEILSNEDPQEEAGEEYQSSLPAPRSNIRITAKYEHEEEITRARYMPQDPNIVATINGQGTVFLYSRSEGLQSTLKFHKDNGYALSFSTLVKGRLLSGSDDHTVALWEVGSGGDPTKPVRTWNDLHSDIINDNKWHNFNKDLFGTVSEDSLLKINDVRANNTTIDTVKCPQPFNTLAFSHHSSNLLAAAGMDSYVYLYDLRNMKEPLHHMSGHEDAVNNLEFSTHVDGVVVSSGSDNRLMMWDLKQIGAEQTPDDAEDGVPELIMVHAGHRSSVNDFDLNPQIPWLVASAEEENILQVWKCSHSLPIVGGPPKVNKDIIS

Key:
Hat2, full-length, yeast = molecular target: B1; test: crystal structure
histone H4(7–102), yeast = histone H4(7–102), yeast (yeast, UniProt P02309 8-103); test: crystal structure

binding result (Hat2, full-length, yeast)	binding result (histone H4(7–102), yeast)	Binder
binds	binds	BRIL-fused Hat1ΔC (yeast Hat1 residues 1–320) (enzyme, UniProt Q12341 1-320, looked up) MSANDFKPETWTSSANEALRVSIVGENAVQFSPLFTYPIYGDSEKIYGYKDLIIHLAFDSVTFKPYVNVKYSAKLGDDNIVDVEKKLLSFLPKDDVIVRDEAKWVDCFAEERKTHNLSDVFEKVSEYSLNGEEFVVYKSSLVDDFARRMHRRVQIFSLLFIEAANYIDETDPSWQIYWLLNKKTKELIGFVTTYKYWHYLGAKSFDEDIDKKFRAKISQFLIFPPYQNKGHGSCLYEAIIQSWLEDKSITEITVEDPNEAFDDLRDRNDIQRLRKLGYDAVFQKHSDLSDEFLESSRKSLKLEERQFNRLVEMLLLLNNS
	binds	B1
